{
  "source": "IntAct's records for PubMed 19542283",
  "parents": {"B1": {"name": "Chemotaxis protein CheA (Escherichia coli (strain K12)), P07363-2 (parent)", "chain": "MQEQLDAYKQSQEPDAASFDYICQALRQLALEAKGETPSAVTRLSVVAKSEPQDEQSRSQSPRRIILSRLKAGEVDLLEEELGHLTTLTDVVKGADSLSAILPGDIAEDDITAVLCFVIEADQITFETVEVSPKISTPPVLKLAAEQAPTGRVEREKTTRSNESTSIRVAVEKVDQLINLVGELVITQSMLAQRSSELDPVNHGDLITSMGQLQRNARDLQESVMSIRMMPMEYVFSRYPRLVRDLAGKLGKQVELTLVGSSTELDKSLIERIIDPLTHLVRNSLDHGIELPEKRLAAGKNSVGNLILSAEHQGGNICIEVTDDGAGLNRERILAKAASQGLTVSENMSDDEVAMLIFAPGFSTAEQVTDVSGRGVGMDVVKRNIQKMGGHVEIQSKQGTGTTIRILLPLTLAILDGMSVRVADEVFILPLNAVMESLQPREADLHPLAGGERVLEVRGEYLPIVELWKVFNVAGAKTEATQGIVVILQSGGRRYALLVDQLIGQHQVVVKNLESNYRKVPGISAATILGDGSVALIVDVSALQAINREQRMANTAA", "partner": "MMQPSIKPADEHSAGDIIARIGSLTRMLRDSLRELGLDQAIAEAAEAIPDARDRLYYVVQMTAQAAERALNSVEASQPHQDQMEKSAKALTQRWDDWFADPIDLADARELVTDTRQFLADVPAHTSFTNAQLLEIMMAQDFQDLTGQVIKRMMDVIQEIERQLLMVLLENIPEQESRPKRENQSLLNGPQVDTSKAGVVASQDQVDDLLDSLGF"}},
  "data": [
    {"variants_of": "B1", "conditions": "with chez_ecoli cheZ", "values": [
      {"variant": "MQEQLDAYKQSQEPDAASFDYICQAARQLALEAKGETPSAVTRLSVVAKSEPQDEQSRSQSPRRIILSRLKAGEVDLLEEELGHLTTLTDVVKGADSLSAILPGDIAEDDITAVLCFVIEADQITFETVEVSPKISTPPVLKLAAEQAPTGRVEREKTTRSNESTSIRVAVEKVDQLINLVGELVITQSMLAQRSSELDPVNHGDLITSMGQLQRNARDLQESVMSIRMMPMEYVFSRYPRLVRDLAGKLGKQVELTLVGSSTELDKSLIERIIDPLTHLVRNSLDHGIELPEKRLAAGKNSVGNLILSAEHQGGNICIEVTDDGAGLNRERILAKAASQGLTVSENMSDDEVAMLIFAPGFSTAEQVTDVSGRGVGMDVVKRNIQKMGGHVEIQSKQGTGTTIRILLPLTLAILDGMSVRVADEVFILPLNAVMESLQPREADLHPLAGGERVLEVRGEYLPIVELWKVFNVAGAKTEATQGIVVILQSGGRRYALLVDQLIGQHQVVVKNLESNYRKVPGISAATILGDGSVALIVDVSALQAINREQRMANTAA", "note": "[L26A]", "effect of a mutation on the interaction": "disrupting interaction strength"},
      {"variant": "MQEQLDAYKQSQEPDAASFDYICQASRQLALEAKGETPSAVTRLSVVAKSEPQDEQSRSQSPRRIILSRLKAGEVDLLEEELGHLTTLTDVVKGADSLSAILPGDIAEDDITAVLCFVIEADQITFETVEVSPKISTPPVLKLAAEQAPTGRVEREKTTRSNESTSIRVAVEKVDQLINLVGELVITQSMLAQRSSELDPVNHGDLITSMGQLQRNARDLQESVMSIRMMPMEYVFSRYPRLVRDLAGKLGKQVELTLVGSSTELDKSLIERIIDPLTHLVRNSLDHGIELPEKRLAAGKNSVGNLILSAEHQGGNICIEVTDDGAGLNRERILAKAASQGLTVSENMSDDEVAMLIFAPGFSTAEQVTDVSGRGVGMDVVKRNIQKMGGHVEIQSKQGTGTTIRILLPLTLAILDGMSVRVADEVFILPLNAVMESLQPREADLHPLAGGERVLEVRGEYLPIVELWKVFNVAGAKTEATQGIVVILQSGGRRYALLVDQLIGQHQVVVKNLESNYRKVPGISAATILGDGSVALIVDVSALQAINREQRMANTAA", "note": "[L26S]", "effect of a mutation on the interaction": "disrupting interaction strength"},
      {"variant": "MQEQLDAYKQSQEPDAASFDSICQALRQLALEAKGETPSAVTRLSVVAKSEPQDEQSRSQSPRRIILSRLKAGEVDLLEEELGHLTTLTDVVKGADSLSAILPGDIAEDDITAVLCFVIEADQITFETVEVSPKISTPPVLKLAAEQAPTGRVEREKTTRSNESTSIRVAVEKVDQLINLVGELVITQSMLAQRSSELDPVNHGDLITSMGQLQRNARDLQESVMSIRMMPMEYVFSRYPRLVRDLAGKLGKQVELTLVGSSTELDKSLIERIIDPLTHLVRNSLDHGIELPEKRLAAGKNSVGNLILSAEHQGGNICIEVTDDGAGLNRERILAKAASQGLTVSENMSDDEVAMLIFAPGFSTAEQVTDVSGRGVGMDVVKRNIQKMGGHVEIQSKQGTGTTIRILLPLTLAILDGMSVRVADEVFILPLNAVMESLQPREADLHPLAGGERVLEVRGEYLPIVELWKVFNVAGAKTEATQGIVVILQSGGRRYALLVDQLIGQHQVVVKNLESNYRKVPGISAATILGDGSVALIVDVSALQAINREQRMANTAA", "note": "[Y21S]", "effect of a mutation on the interaction": "disrupting interaction strength"},
      {"variant": "MQEQLDAYKQSQEPDAASFDYSCQALRQLALEAKGETPSAVTRLSVVAKSEPQDEQSRSQSPRRIILSRLKAGEVDLLEEELGHLTTLTDVVKGADSLSAILPGDIAEDDITAVLCFVIEADQITFETVEVSPKISTPPVLKLAAEQAPTGRVEREKTTRSNESTSIRVAVEKVDQLINLVGELVITQSMLAQRSSELDPVNHGDLITSMGQLQRNARDLQESVMSIRMMPMEYVFSRYPRLVRDLAGKLGKQVELTLVGSSTELDKSLIERIIDPLTHLVRNSLDHGIELPEKRLAAGKNSVGNLILSAEHQGGNICIEVTDDGAGLNRERILAKAASQGLTVSENMSDDEVAMLIFAPGFSTAEQVTDVSGRGVGMDVVKRNIQKMGGHVEIQSKQGTGTTIRILLPLTLAILDGMSVRVADEVFILPLNAVMESLQPREADLHPLAGGERVLEVRGEYLPIVELWKVFNVAGAKTEATQGIVVILQSGGRRYALLVDQLIGQHQVVVKNLESNYRKVPGISAATILGDGSVALIVDVSALQAINREQRMANTAA", "note": "[I22S]", "effect of a mutation on the interaction": "disrupting interaction strength"},
      {"variant": "MQEQLDAYKQSQEPDAASFDYACQALRQLALEAKGETPSAVTRLSVVAKSEPQDEQSRSQSPRRIILSRLKAGEVDLLEEELGHLTTLTDVVKGADSLSAILPGDIAEDDITAVLCFVIEADQITFETVEVSPKISTPPVLKLAAEQAPTGRVEREKTTRSNESTSIRVAVEKVDQLINLVGELVITQSMLAQRSSELDPVNHGDLITSMGQLQRNARDLQESVMSIRMMPMEYVFSRYPRLVRDLAGKLGKQVELTLVGSSTELDKSLIERIIDPLTHLVRNSLDHGIELPEKRLAAGKNSVGNLILSAEHQGGNICIEVTDDGAGLNRERILAKAASQGLTVSENMSDDEVAMLIFAPGFSTAEQVTDVSGRGVGMDVVKRNIQKMGGHVEIQSKQGTGTTIRILLPLTLAILDGMSVRVADEVFILPLNAVMESLQPREADLHPLAGGERVLEVRGEYLPIVELWKVFNVAGAKTEATQGIVVILQSGGRRYALLVDQLIGQHQVVVKNLESNYRKVPGISAATILGDGSVALIVDVSALQAINREQRMANTAA", "note": "[I22A]", "effect of a mutation on the interaction": "decreasing interaction strength"}
    ]}
  ]
}
